Laboratory results taken from patent US20260242515A1 (DUALITY BIOLOGICS SHANGHAI, published 2026).
Positions count from the first letter of the chain named.

T1: Monkey ADAM9 protein (ACRO, Cat. No. AD9-C52H7) (cynomolgus monkey, UniProt A0A2K5X4X8 29-697)
T1 construct: Bought protein; also called cynomolgus ADAM9 protein; monkey ADAM9 antigen
T1 sequence: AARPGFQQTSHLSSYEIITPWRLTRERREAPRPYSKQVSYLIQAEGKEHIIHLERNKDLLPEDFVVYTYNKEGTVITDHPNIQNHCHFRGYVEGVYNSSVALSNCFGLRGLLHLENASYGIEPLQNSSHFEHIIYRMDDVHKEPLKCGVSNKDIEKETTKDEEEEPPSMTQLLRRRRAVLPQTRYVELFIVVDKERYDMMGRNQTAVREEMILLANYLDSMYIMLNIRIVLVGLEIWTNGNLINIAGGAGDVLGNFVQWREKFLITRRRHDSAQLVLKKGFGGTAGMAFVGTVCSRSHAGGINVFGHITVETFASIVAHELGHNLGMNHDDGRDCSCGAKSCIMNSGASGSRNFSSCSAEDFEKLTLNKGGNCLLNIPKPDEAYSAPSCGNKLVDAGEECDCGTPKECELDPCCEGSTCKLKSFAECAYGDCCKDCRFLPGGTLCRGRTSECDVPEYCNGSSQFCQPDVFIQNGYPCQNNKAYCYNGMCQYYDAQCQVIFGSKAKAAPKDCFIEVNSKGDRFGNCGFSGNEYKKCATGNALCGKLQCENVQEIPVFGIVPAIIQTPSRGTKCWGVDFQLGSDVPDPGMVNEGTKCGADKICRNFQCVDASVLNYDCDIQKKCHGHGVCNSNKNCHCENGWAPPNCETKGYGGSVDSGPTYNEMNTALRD

T2: Human ADAM9 protein (ACROBiosystems, Cat. No. AD9-H52H7) (human, UniProt Q13443 29-697)
T2 construct: Bought protein; also called Human ADAM-His protein; human ADAM9 antigen; not shown: His tag
T2 sequence (looked up): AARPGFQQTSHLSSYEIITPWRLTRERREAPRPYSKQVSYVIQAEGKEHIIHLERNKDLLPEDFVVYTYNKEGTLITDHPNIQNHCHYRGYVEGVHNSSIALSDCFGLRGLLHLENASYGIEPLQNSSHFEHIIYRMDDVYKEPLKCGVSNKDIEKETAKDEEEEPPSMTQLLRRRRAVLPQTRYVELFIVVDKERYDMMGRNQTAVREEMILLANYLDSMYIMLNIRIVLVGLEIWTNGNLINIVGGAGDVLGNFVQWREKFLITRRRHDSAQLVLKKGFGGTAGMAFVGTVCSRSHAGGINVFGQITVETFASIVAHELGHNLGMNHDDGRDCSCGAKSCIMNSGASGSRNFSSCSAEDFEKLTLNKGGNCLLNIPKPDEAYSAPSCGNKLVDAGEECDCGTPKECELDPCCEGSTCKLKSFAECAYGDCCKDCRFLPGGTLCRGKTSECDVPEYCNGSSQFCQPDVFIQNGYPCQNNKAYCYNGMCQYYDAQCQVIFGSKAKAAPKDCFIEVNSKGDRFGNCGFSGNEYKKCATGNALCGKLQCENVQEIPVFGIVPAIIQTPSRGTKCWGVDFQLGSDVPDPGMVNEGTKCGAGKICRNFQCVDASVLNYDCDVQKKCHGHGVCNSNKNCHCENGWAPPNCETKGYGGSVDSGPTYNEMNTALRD

B1: Ab15 (antibody, human IgG1, kappa, V domains shown)
VH: QVQLQQPGAELKKPGASVKVSCKASGFTFPLYWMNWVRQRPGRGLEWIGRIIPIFGHTKYNEKFKDRATMTADESSSTAYMELSSLTSEDSAVYYCARGGYYYYPREGFLDYWGQGTSVTVSS
VL: DIVMTQSPDSLSVSPGERATINCRSSQSVDYSGDSYMNWYQQKPGQSPRLLIYAASDRESGVPDRFSGSGSGTDFTLKISNVEEEDAATYYCQQSREDPFTFGQGTRVEIKR
notes: Humanized anti-ADAM9 IgG1/kappa; also called Ab15-V (variable regions)
B2: Ab16 (antibody, human IgG1, kappa, V domains shown)
VH: B1 VH with A9T, L11V, K12V, V20L, N35H, D66N, R67K, M70L, S84R, E89D
VL: B1 VL with D9A, T20S, N22S, N81R, A88G, R107K, E109D
notes: Humanized anti-ADAM9 IgG1/kappa; also called Ab16-V (variable regions)

Tests used:
[1] = target: T1, Monkey ADAM9 protein (ACRO, Cat. No. …); assay: SPR (Biacore 8K), antibody captured by anti-human Fc on CM5, monkey ADAM9 as analyte
Experimental: Chip preparation: The mouse anti-human IgG (Fc) antibody (Cat. No. 29234600, Cytiva) was diluted to 25 μg/mL in immobilization buffer (10 mM sodium acetate, pH 5.0), specifically by adding 950 μL of the immobilization buffer to 50 μL of the mouse anti-human IgG (Fc) antibody. The dilution was used for immobilization in eight channels. First, the surface of the CM5 chip was activated with 400 mM EDC and 100 mM NHS at a flow rate of 10 μL/min for 420 seconds. Then, 25 μg/mL of the mouse anti-human IgG (Fc) antibody was injected into the test channels at a flow rate of 10 μL/min for approximately 360 seconds, with the level of immobilization at approximately 7000 to 14000 RU. Finally, the chip was blocked with 1 M ethanolamine at a flow rate of 10 μL/min for 420 seconds. The reference channels underwent the same procedures as the test channels.
Ligand capture: Antibodies Ab10, Ab15, Ab16, and hMAB-A (2I.2) were diluted to 4 μg/mL in running buffer (containing 10 mM N-(2-hydroxyethyl)piperazine-N-2-ethanesulfonic acid (HEPES), 150 mM sodium chloride (NaCl), 3 mM ethylenediaminetetraacetic acid (EDTA), 0.005% Tween-20, pH adjusted to 7.4) and injected into the test channels for human IgG (Fc) capture at a flow rate of 10 μL/min at approximately 200 RU. No ligand capture was performed in the reference channels.
Analyte multi-cycle analysis: Human and cynomolgus ADAM9 proteins (human ADAM9 protein purchased from ACRO, Cat. No. AD9-H52H7; monkey ADAM9 protein purchased from ACRO, Cat. No. AD9-C52H7) were diluted 2-fold in running buffer (Table 10). The diluted human or cynomolgus ADAM9 protein was sequentially injected into the test channels and the reference channels at a flow rate of 30 μL/min, with corresponding association and dissociation times. Both the association and dissociation steps were performed in the running buffer. After each concentration analysis, the chip was regenerated with 3 M magnesium chloride at a flow rate of 20 μL/min for 30 seconds to wash away the ligand and any undissociated analyte. For the next concentration analysis, the test channels required re-capture of the same amount of ligand.

[2] = target: T2, Human ADAM9 protein (ACROBiosystems, …); assay: indirect ELISA, human ADAM9-His coated at 1 ug/mL
Experimental: The plate was washed three times with PBST (PBS (pH 7.4) containing 0.05% Tween-20), followed by addition of 200 μL/well of blocking buffer containing 1% bovine serum albumin (BSA) diluted in PBST, and incubated at 37° C. for 1 hour for blocking. After blocking, the blocking buffer was discarded, and the plate was washed once with PBST buffer. The test antibody was diluted in PBST containing 1% BSA with a 3-fold serial dilution starting at 15 μg/mL across 11 doses, and added to the ELISA plate at 100 μL/well, followed by incubation at 37° C. for 1 hour. After incubation, the plate was washed three times with PBST, followed by addition of 100 μL/well of HRP-labeled goat anti-human secondary antibody (Rockland, Cat. No. 609-103-123) diluted in PBST containing 1% BSA, and incubated at room temperature for 45 minutes. The plate was washed six times with PBST, followed by addition of 100 μL/well of TMB chromogenic substrate (Suzhou Yacoo Chemical Reagent Co., Ltd., Cat. No. S0025), and incubated at room temperature in the dark for 10 minutes. The reaction was terminated by adding 50 μL/well of 1 M HCl, and the absorbance was measured at 450 nm using a microplate reader (Thermo, Ascent) for data analysis.

Binder | Kd [1] [nM] | koff [1] [s⁻¹] | kon [1] [M⁻¹ s⁻¹] | EC50 [2] [nM] | Top (OD450) [2] [OD450]
B1 | 9.47 | 0.000461 | 48700 | 0.049 | 3.28
B2 | 8.61 | 0.000528 | 61300 | 0.042 | 3.36
